Results: patent US20200317768A1 (published 2020)
Numbering of substitutions follows the chain as printed.

T1: cynomolgus monkey FcγRIIb extracellular domain with C-terminal His-tag (cynomolgus monkey)
T1 construct: Expressed in FreeStyle 293 cells and purified; also called cyno FcγRIIb; cynoFcγRIIb; not shown: C-terminal His-tag
T1 chain: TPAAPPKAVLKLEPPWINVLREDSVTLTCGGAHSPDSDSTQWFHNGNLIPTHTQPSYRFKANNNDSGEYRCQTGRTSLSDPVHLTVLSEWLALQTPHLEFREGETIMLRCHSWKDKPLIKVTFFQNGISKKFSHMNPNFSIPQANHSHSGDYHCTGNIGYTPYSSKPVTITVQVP

T2: cynomolgus monkey FcγRIIIaS extracellular domain with C-terminal His-tag (cynomolgus monkey, UniProt Q8SPW2 21-206 at identity 1.00))
T2 construct: Expressed in FreeStyle 293 cells and purified; also called cyno FcγRIIIaS; cynoFcγRIIIaS; not shown: C-terminal His-tag
T2 chain: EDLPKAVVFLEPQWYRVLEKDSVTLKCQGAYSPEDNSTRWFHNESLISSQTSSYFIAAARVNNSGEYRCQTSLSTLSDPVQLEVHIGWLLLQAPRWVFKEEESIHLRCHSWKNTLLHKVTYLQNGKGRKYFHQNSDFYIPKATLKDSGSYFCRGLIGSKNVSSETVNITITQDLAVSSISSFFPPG

T3: cynomolgus monkey FcγRIIa2 extracellular domain with C-terminal His-tag (cynomolgus monkey)
T3 construct: Expressed in FreeStyle 293 cells and purified; also called cyno FcγRIIa2; cynoFcgRIIa2; not shown: C-terminal His-tag
T3 chain: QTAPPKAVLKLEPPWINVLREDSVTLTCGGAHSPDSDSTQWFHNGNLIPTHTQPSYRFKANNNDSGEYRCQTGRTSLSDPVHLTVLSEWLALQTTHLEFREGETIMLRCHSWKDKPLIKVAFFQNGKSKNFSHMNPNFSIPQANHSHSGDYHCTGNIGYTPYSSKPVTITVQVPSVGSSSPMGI

T4: cynomolgus monkey FcγRIIa3 extracellular domain with C-terminal His-tag (cynomolgus monkey)
T4 construct: Expressed in FreeStyle 293 cells and purified; also called cyno FcγRIIa3; cynoFcgRIIa3; not shown: C-terminal His-tag
T4 chain: T3 chain with K127I, N130K, H133P, Q142R

T5: human FcγRIIaR extracellular domain with C-terminal His-tag (human, UniProt P12318 34-217)
T5 construct: Expressed in FreeStyle 293 cells and purified; also called human FcγRIIa (type R); FcgRIIaR; not shown: C-terminal His-tag
T5 chain: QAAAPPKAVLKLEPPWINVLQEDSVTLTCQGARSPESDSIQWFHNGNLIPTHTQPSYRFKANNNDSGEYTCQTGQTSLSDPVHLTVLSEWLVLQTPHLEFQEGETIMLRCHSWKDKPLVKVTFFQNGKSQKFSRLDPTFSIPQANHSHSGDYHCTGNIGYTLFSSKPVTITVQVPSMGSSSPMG

T6: human FcγRIIaH extracellular domain with C-terminal His-tag (human, UniProt P12318 34-217)
T6 construct: Expressed in FreeStyle 293 cells and purified; also called human FcγRIIa (type H); FcgRIIaH; not shown: C-terminal His-tag
T6 sequence: T5 chain with R134H

T7: cynomolgus monkey FcγRIIa3 extracellular domain with C-terminal His-tag (cynomolgus monkey)
T7 construct: also called cyno FcgRIIa3; cynoFcγRIIa3
T7 chain: T3 chain with K127I, N130K, H133P, Q142R

B1: MS_M103205H795-SG1/M103202L889-SK1 (antibody, human IgG1, kappa)
heavy: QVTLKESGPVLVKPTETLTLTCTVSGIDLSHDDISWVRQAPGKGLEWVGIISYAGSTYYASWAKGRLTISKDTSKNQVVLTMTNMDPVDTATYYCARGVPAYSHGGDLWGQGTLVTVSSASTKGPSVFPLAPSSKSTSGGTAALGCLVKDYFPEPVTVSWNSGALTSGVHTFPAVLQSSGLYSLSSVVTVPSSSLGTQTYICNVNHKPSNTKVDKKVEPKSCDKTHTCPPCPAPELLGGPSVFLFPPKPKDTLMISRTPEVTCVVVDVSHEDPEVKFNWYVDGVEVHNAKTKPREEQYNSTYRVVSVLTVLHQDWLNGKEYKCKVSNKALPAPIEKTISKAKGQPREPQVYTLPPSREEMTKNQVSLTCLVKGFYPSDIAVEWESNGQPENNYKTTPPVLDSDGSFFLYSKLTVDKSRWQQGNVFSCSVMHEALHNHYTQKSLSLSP
light: DIVMTQSPATLSLSPGERATLSCTSSQSVYHANWLSWFQQKPGQPPKLLIYWASTLAYGVPSRFSGSGSGTDFTLTISSLQPEDAATYYCAGGYGGGRYAFGQGTKVEIKRTVAAPSVFIFPPSDEQLKSGTASVVCLLNNFYPREAKVQWKVDNALQSGNSQESVTEQDSKDSTYSLSSTLTLSKADYEKHKVYACEVTHQGLSSPVTKSFNRGEC
notes: Anti-latent myostatin IgG; also called MS1032LO06-SG1
B2: M103205H795-MY052 / M103202L889-SK1 (antibody, human IgG1, kappa)
heavy: QVTLKESGPVLVKPTETLTLTCTVSGIDLSHDDISWVRQAPGKGLEWVGIISYAGSTYYASWAKGRLTISKDTSKNQVVLTMTNMDPVDTATYYCARGVPAYSHGGDLWGQGTLVTVSSASTKGPSVFPLAPSSKSTSGGTAALGCLVKDYFPEPVTVSWNSGALTSGVHTFPAVLQSSGLYSLSSVVTVPSSSLGTQTYICNVNHKPSNTKVDKKVEPKSCDKTHTCPPCPAPELLNGPSVFLFPPKPKDTLMISRTPEVTCVVVDVSEEDPEVKFNWYVDGVEVHNAKTKPREEQYNSTYRVVSVLTVLHQDWLNGKEYKCKVSNKALPAPIEKTISKAKGQPREPQVYTLPPSREEMTKNQVSLTCLVKGFYPSDIAVEWESNGQPENNYKTTPMVLDSDGSFFLYSKLTVDKSRWQQGNVFSCSVMHEALHNHYTQKSLSLSP
light: B1 light
notes: Fc variant of M103205H795-SG1, expressed with M103202L889-SK1 as light chain; parent of the position 396 variants
B3: M103205H795-MY171 / M103202L889-SK1 (antibody, human IgG1, kappa)
heavy: B2 heavy with M398F
light: B1 light
notes: Position 396 variant derived from MY052, expressed with M103202L889-SK1 as light chain
B4: M103205H795-MY168 / M103202L889-SK1 (antibody, human IgG1, kappa)
heavy: B2 heavy with M398A
light: B1 light
notes: as for B3
B5: M103205H795-MY169 / M103202L889-SK1 (antibody, human IgG1, kappa)
heavy: B2 heavy with M398D
light: B1 light
notes: as for B3
B6: M103205H795-MY170 / M103202L889-SK1 (antibody, human IgG1, kappa)
heavy: B2 heavy with M398E
light: B1 light
notes: as for B3
B7: M103205H795-MY531/M103202L889-SK1 (antibody, human IgG1, kappa)
heavy: B2 heavy with L236W, N238T, E270D, K328T, A332K, M398P
light: B1 light
notes: Substitutions introduced into M103205H795-SG1, expressed with M103202L889-SK1 as light chain; EU numbering
B8: M103205H795-MY532/M103202L889-SK1 (antibody, human IgG1, kappa)
heavy: B2 heavy with L236W, N238T, S241V, E270D, A332K, M398P
light: B1 light
notes: as for B7

Molecular target: T1, cynomolgus monkey FcγRIIb extracellular …
Experiment: SPR (Biacore); KD of SG1 divided by KD of the variant for this FcgR;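 also: relative to parent M103205H795-SG1 carrying the SG1 human heavy chain constant region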
Experimental: (§1) The kinetic analysis of interactions between these antibodies and FcγR was carried out using BIACORE® T200 or BIACORE® 4000 (GE Healthcare). HBS-EP+ (GE Healthcare) was used as the running buffer, and the measurement temperature was set to 25° C. A chip produced by immobilizing Protein A. Protein A/G or mouse anti-human IgG kappa light chain (BD Biosciences) onto a Series S Sensor Chip CM4 or CM5 (GE Healthcare) by the amine-coupling method was used. […] After the measurement, the antibody captured on the chip was washed off by allowing reaction with 10 mM glycine-HCl, pH1.5 and 25 mM NaOH so that the chip was regenerated and used repeatedly. The sensorgrams obtained as measurement results were analyzed by the 1:1 Langmuir binding model using the BIACORE® Evaluation Software to calculate the binding rate constant ka (L/mol/s) and dissociation rate constant kd (l/s), and the dissociation constant KD (mol/L) was calculated from these values. […] Regarding such interactions, KD values were calculated using the following 1:1 binding model described in BIACORE® T100 Software Handbook BR1006-48 Edition AE.
(§2) The resultant variants were expressed using M103202L889-SK1 as light chain and their affinity to human and cynoFcγRs were evaluated (Table 20).

KD fold (SG1 = 1) [fold]	Binder
1	B1
3.9	B2
1.8	B3
1.5	B4
1.8	B5
1.5	B6

Molecular target: T2, cynomolgus monkey FcγRIIIaS …
Experiment: as above
Experimental: as §1, §2

KD fold (SG1 = 1) [fold]	Binder
1	B1
0.24	B2
0.11	B3
0.08	B4
0.1	B5
0.12	B6

Molecular target: T3, cynomolgus monkey FcγRIIa2 …
Experiment: as above
Experimental: as §1, §2

KD fold (SG1 = 1) [fold]	Binder
1	B1
3.4	B2
2.2	B3
2	B4
2.2	B5
2.1	B6

Molecular target: T4, cynomolgus monkey FcγRIIa3 …
Experiment: as above
Experimental: as §1, §2

KD fold (SG1 = 1) [fold]	Binder
1	B1
4.4	B2
1.8	B3
1.7	B4
1.7	B5
1.4	B6

Molecular target: T5, human FcγRIIaR extracellular domain …
Experiment: as above
Experimental: as §1, §2

KD fold (SG1 = 1) [fold]	Binder
1	B1
0.8	B2
0.5	B3
0.4	B4
0.4	B5
0.4	B6

Molecular target: T6, human FcγRIIaH extracellular domain …
Experiment: as above
Experimental: as §1, §2

KD fold (SG1 = 1) [fold]	Binder
1	B1
0.8	B2
0.5	B3
0.4	B4
0.6	B5
0.4	B6

Molecular target: T8, human FcγRIIIaV extracellular domain with C-terminal His-tag (human, UniProt P08637 17-208)
T8 construct: also called human FcgRIIIaV
T8 sequence (P08637 17-208 F176V): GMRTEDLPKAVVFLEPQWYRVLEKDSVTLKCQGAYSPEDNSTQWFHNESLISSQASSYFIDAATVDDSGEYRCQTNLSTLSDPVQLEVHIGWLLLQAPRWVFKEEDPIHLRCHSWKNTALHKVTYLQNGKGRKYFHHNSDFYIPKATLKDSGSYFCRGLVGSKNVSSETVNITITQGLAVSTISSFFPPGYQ
Experiment: SPR (BIACORE), antibody captured, FcgR analyte

Kd [nM]	Binder
2900	B7
1700	B8

Molecular target: T7, cynomolgus monkey FcγRIIa3 …
Experiment: SPR (BIACORE), antibody captured, FcgR analyte

Kd [nM]	Binder
2200	B7
740	B8
